According to publication doi:10.1101/2020.07.11.198572:

Experiments:
[1] = molecular target: EGFR-GFP (GFP-labelled epidermal growth factor receptor) in SW620-EGFR-GFP cells (human) (UniProt P00533)
[2] = molecular target: EGFR-GFP (GFP-labelled epidermal growth factor receptor) in SW620-EGFR-GFP cells (human) (UniProt P00533); remark: listed apart in the source

For “EGF-TMR (epidermal growth factor conjugated to tetramethylrhodamine) (ligand)”, the mean relative stoichiometry EGFR:EGF [1] was 4.2 EGFR:EGF, the stoichiometry N [1] was 1.9 EGFR:EGF and the percent of EGFR foci colocalized with EGF (3-60 min) [2] was 40%. It also gave a percent of all tracked EGFR molecules in foci colocalized with EGF [2] of 64%.
